# Data published in the supplement of paper PMC12042874.
# ± gives the uncertainty stated by the source.
# Test: amyloid nucleation score (Sup35N fusion, yeast selection) (log enrichment); library NNK2; higher = more nucleation; inactive = no reads after selection
# Procedure, shortened: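 Random libraries were run with three technical output replicates. In each, psi-negative yeast expressing Sup35N fused to peptides of 20 random codons were induced 24 hours with 100 μM copper sulfate and grown 7 days at 30°C on medium lacking adenine and uracil, and input and output plasmid inserts were Illumina-sequenced. The nucleation score is the DiMSum log enrichment of output over input reads, centred on the mode score of non-aggregating sequences, and sequences under 100 input reads were excluded.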
row,Substance,amyloid nucleation score
1,FYGQMRSKVLCLFH,-1.02 ± 0.76
2,LRLARKRVECFVLLADFNNR,0.306 ± 0.53
3,VTYLGACVYRCCEMSLVFRF,-0.412 ± 0.63
4,VLDAHLY,inactive
5,MIQHEKQMWWADNSYP,0.483 ± 0.24
6,FINSD,inactive
7,VMVCGTFANKLRLPVSIELT,0.534 ± 0.28
8,SLSTSFLYDFWVLNSADPRY,-0.258 ± 0.76
9,TTHCRLYMYVWWMYVVIFFD,2.11 ± 0.16
10,DCCRWSVLVVIVLAARSSMS,3.17 ± 0.099
11,PMAPSCLYRIIIMN,1.51 ± 0.26
12,KSSSAVIW,-0.045 ± 0.53
13,INCRFMVCWA,9 ± 0.052
14,GKRLSAFWQVVRSWLHIGGM,5.176 ± 0.035
15,FFGYAGCNRPVNLSYGGRFN,-0.952 ± 0.32
16,VWLFNLKGPLTRNLLHNLFA,-0.678 ± 0.63
17,PWAMDQVTLSMVLPFMWPRL,0.456 ± 0.39
18,NWDNSNLVFLYNSGLGNYVS,-0.874 ± 0.78
19,WVSSIGGDWGMIYSLLQLYW,0.205 ± 0.46
20,FTVGSMSGDFWLLCWYLR,3.09 ± 0.15
21,KSLYCVNFLCRPECANPSSS,6.592 ± 0.029
22,DFMRDFWKDSDNQEVFLLPI,-0.885 ± 0.44
23,HSRLLCWANVDLERFSEWSG,1.46 ± 0.23
24,TGCLLWCLLSMEGRESFQDD,-0.504 ± 0.78
25,NCGLCGILHHL,8.14 ± 0.072

row,Substance,amyloid nucleation score
1,GVTFNADASTFRDACMARLG,0.752 ± 0.48
2,NSMILDKNRDSTNFVSCFSY,-1.6 ± 0.49
3,TNLFVSLPQPSVVKSSGSLQ,0.212 ± 0.31
4,ILSCRYHNYSQQLVK,inactive
5,ITACCRSR,3.02 ± 0.062
6,CTWDFNDHFMLVQNNDEQLW,0.087 ± 0.79
7,SIANLPFISLL,-1.62 ± 0.54
8,TIALPNFVWPKSSRKVYFS,-0.748 ± 0.32
9,FSVYRETERLGMSFRVRLWM,5.25 ± 0.073
10,MFEIIPFPTSISDRGSTIYM,-0.855 ± 0.55
11,ARCTKINLGPYRGSINSLFW,inactive
12,MMMLLG,0.505 ± 0.13
13,TLKYSVVNTLMTSMHDF,3.56 ± 0.082
14,NRVGSSGSRYALHRVSSS,4.846 ± 0.045
15,INCSAFNHCIYSSPT,2.82 ± 0.082
16,CCVVYF,9.638 ± 0.039
17,RLTYCSQFVWTWCCNRAING,9.062 ± 0.024
18,INSVFNGIGRVYRHW,-0.554 ± 1
19,RELLSLSYSLVMCVVLRV,0.734 ± 0.18
20,VFMGNSLHFRRSTVAHWRSN,1.39 ± 0.41
21,IFPEL,-1.11 ± 0.45
22,NLHVHL,3.64 ± 0.056
23,RYSNMLN,3.83 ± 0.096
24,MGAYEGDRVQMLEHADFRKN,-0.355 ± 0.74
25,CEHRSLTFWHNGLLD,-0.143 ± 0.65

row,Substance,amyloid nucleation score
1,FFPPFVNLGVGTYQV,-1.37 ± 0.54
2,VRDLPMCNPYIRYTLFCQVS,-0.497 ± 0.45
3,GVRAGACLGNGSVYSSGGRF,inactive
4,HYITKFSYDLGRKAKALVLS,-0.626 ± 0.54
5,SNGPW,-0.512 ± 0.76
6,GDKSIRSPLAV,-0.087 ± 0.34
7,NEPETLWFLLVVWEGINISP,0.561 ± 0.64
8,VTSLG,-0.249 ± 0.25
9,TFWTANISSADTSSFFY,0.272 ± 0.34
10,DRVQG,1.2 ± 0.22
11,FQCDVSCSVYKSWEMFQGIT,0.164 ± 0.8
12,RIMSCNQITNIICVL,4.89 ± 0.078
13,WVVRGWLGV,0.23 ± 0.38
14,TGAWLALFLGRHAKWLALFM,0.817 ± 0.26
15,NNVPCEKHRHASMYINAA,-0.081 ± 1.1
16,DMSFQDIIMP,-0.931 ± 0.54
17,FSLFWWMSHITREWISCMCM,-0.895 ± 1.1
18,RYPIVRTDMYIIVKFI,0.509 ± 0.81
19,RFDHMSYRSCPRESEFEVTC,inactive
20,FFRNIIYRCMREIKFIEPSE,-0.046 ± 0.63
21,SMIDGWGRVFHYAVVQISMN,6.158 ± 0.032
22,IQSNAQESHNSNICESYNND,-1.02 ± 0.62
23,WDGLASLQVSCVAMLLVQSF,-0.546 ± 0.39
24,EFNYHVQRSLFSR,0.285 ± 0.65
25,NLNVGALSSKWVW,inactive

row,Substance,amyloid nucleation score
1,RYYHLCAI,0.289 ± 0.8
2,RVPSSHF,1 ± 0.47
3,SRCVCMFTEIPATAFPMKVR,-0.94 ± 0.64
4,VTAAVNCFVNKAQLCTCLFM,9.097 ± 0.052
5,MYRYSWHDVFCVSKCSEVS,inactive
6,SRDVSLRYCTWCPGVN,0.789 ± 0.22
7,MNKCFFTSRSEG,inactive
8,NSYILKDFNCEPGVNMDWQN,inactive
9,KYRKSGSERTRARTGVCTVW,0.585 ± 0.66
10,SLDETSPLVWEWEICSDLYN,0.68 ± 0.56
11,CCQSSEYCWCAWQTSVTSVG,0.404 ± 0.8
12,LFACFRNMLV,0.504 ± 0.39
13,YLSKTLIAVMDFCVLDTG,-0.971 ± 0.48
14,GPYFVNYPLKTNSIVLWELA,0.356 ± 0.8
15,YLLWSTVSAAFSDCRGLKYG,inactive
16,GLIGSERNSRVWRNYQMSCS,2.99 ± 0.11
17,LCYGFEYHVDGLYNVSYESS,0.298 ± 0.37
18,WTYDVQGREVCYVKPYLAMW,1.07 ± 0.32
19,PFSRLNPRDPLWVEMFVCWQ,3.48 ± 0.066
20,ARFWWALGNLCERIAGNDWV,0.216 ± 0.44
21,GNWSVDGWQYCNRTHKCSYH,2.41 ± 0.059
22,YSSNMASALSYICDPMIFNF,-0.703 ± 0.56
23,KHSIMRRKRGFPATKR,0.722 ± 0.43
24,SVVRTRTRTVRVMETWISVW,0.237 ± 1
25,WNCLICRYVNVCKLLCFYY,6.505 ± 0.031

row,Substance,amyloid nucleation score
1,CCQFLVTWDVAYTSMFGSTL,3.56 ± 0.056
2,WERDTFAVLLVRNFNR,0.187 ± 0.43
3,ILILVLIECLILWFCYTMCI,3.16 ± 0.049
4,SSYNCPHINVCSPSAPNTQM,inactive
5,KWDWICSVRCRVRSAYQMSN,inactive
6,NGCSYLERVYVVCYDDMAFG,0.336 ± 0.5
7,HATLNPSSLSATSSNPACRL,0.171 ± 0.31
8,SRPDLHHAKALYFNDLRRE,0.232 ± 0.27
9,ARMSFWRRRPLLLSLRRSGV,0.379 ± 0.44
10,AGNQIRIRASTCASMLGWDL,3.83 ± 0.051
11,KSGGDDLESSWRCWASMGLM,0.182 ± 0.31
12,FTVRQTKAAGECSSKQWGTL,3.18 ± 0.098
13,LIWVRGNEGRFGGRLVLVVE,inactive
14,HALGGDWHGLGGINS,-1.43 ± 0.55
15,RIVLLLNVYNTREM,5.04 ± 0.1
16,SVLSLFWLFTDFLVVSHDIL,-0.784 ± 1.1
17,KSVTDSL,0.878 ± 0.44
18,GYINWSCDRDMFSRTTDFLG,-0.592 ± 0.34
19,IIHTWLWTHRSIR,-0.406 ± 0.5
20,SRLKIFIPNVFL,-0.067 ± 1.1
21,LVILEINVPKNIVSQRNYVP,8.045 ± 0.03
22,IVYFGQVIIFMVMSNSVCSL,-1.38 ± 1
23,PCQCKV,4.16 ± 0.072
24,RHFMLSSTCPEGMNENGTFS,0.811 ± 0.51
25,HDKAHLRTCVVFRLESSGG,4.29 ± 0.085

row,Substance,amyloid nucleation score
1,WGKLRGIPAYDYSLTGCLYV,0.647 ± 0.8
2,IHSSVGYMKTVPKLDDS,0.207 ± 0.34
3,FWRVLLSTLHTIFNMRNNMP,-1.28 ± 0.54
4,PGSKPPWVSYGNPSTMAIGM,-0.472 ± 0.79
5,VGGIWE,-0.427 ± 0.45
6,RSAFHCNWLISISSGKVSHM,-0.452 ± 0.55
7,SRLRRKEYGDWFFYYGWSTN,0.237 ± 1
8,FDSYTIMVI,0.682 ± 0.21
9,MDGVHFVRYQM,0.181 ± 0.45
10,DRVFLFFKKRPGPWMMARLY,inactive
11,VKWKLGLTWMVVIIDGVLCV,0.963 ± 0.35
12,FPVSVTTISPNIYGQPNTWC,-1.41 ± 0.45
13,TDYVRHKRRNYCLL,1.12 ± 0.43
14,AFRDRWLKRMKLTYVVGCIN,-0.17 ± 0.45
15,GSSGFGRVLTGIYKCYTYWE,inactive
16,FINSVVKLLLGNDMSCYSCH,5.65 ± 0.081
17,DLGMECTQVGRLDVVWELLI,0.632 ± 0.31
18,VWNSIDTIYIYRHNYGFFYF,0.751 ± 0.36
19,LVSLLFFGSVSLAKCQWN,-0.526 ± 0.79
20,GYVGLGFNLTHAFGFGSLAG,0.656 ± 0.23
21,NSLYIFMVKYP,3.96 ± 0.049
22,NLRVAALAEGPRVNYRVSGW,0.69 ± 0.43
23,SSSRS,0.66 ± 0.62
24,HRTGWKIFVSW,0.732 ± 0.17
25,TFFLITDTSVMEEM,0.072 ± 0.79

row,Substance,amyloid nucleation score
1,NSESVICVLQGGFIRACV,-0.551 ± 0.45
2,IIPCRSLFAFNMMVM,0.288 ± 0.53
3,ALYFVIQLPV,-0.677 ± 0.63
4,FLVLIQRKAQGITLQREGTW,5.84 ± 0.069
5,LRRSGRSENSRRMTWVWW,2.75 ± 0.17
6,FYLWATTYQCRFFIRYAKFS,2.97 ± 0.084
7,YQIFNKLVAHFKYNYTQTDR,-0.902 ± 0.56
8,DTWTYVAWFLYIIICSRQTE,-0.623 ± 0.35
9,YTDISCVLLGLG,-1.76 ± 0.78
10,GVFLGALCVFTSCLSELWMC,-1.49 ± 0.78
11,AYIARYNPTSLNRVEYPPDD,1.49 ± 0.58
12,TLLVKSKDYRNANSG,0.185 ± 0.5
13,LIGDSLSVVRNRNFPPARGK,-0.237 ± 1
14,VITVTPGGHVPWVLASNGNI,-1.53 ± 0.78
15,KYSNVTCWFSDHLGWRFHTF,inactive
16,NCDRPTLEMSVNRRLFSCPE,0.54 ± 0.27
17,TEVGCYFYTWRICIYNDTRA,2.28 ± 0.11
18,NSKYPGVLYCFYRGFGRRVY,inactive
19,GTLWLGDAGRAEN,0.589 ± 0.39
20,LVLWM,1.68 ± 0.36
